Results: patent US20070202043A1 (ARIUS RESEARCH, published 2007)

Assays:
[1] = target: T1, human TROP-2 on the surface of human cell lines (the AR52A301.5 antigen) (human, UniProt P09758 27-323); experiment: cell-based or functional assay
T1 sequence (looked up): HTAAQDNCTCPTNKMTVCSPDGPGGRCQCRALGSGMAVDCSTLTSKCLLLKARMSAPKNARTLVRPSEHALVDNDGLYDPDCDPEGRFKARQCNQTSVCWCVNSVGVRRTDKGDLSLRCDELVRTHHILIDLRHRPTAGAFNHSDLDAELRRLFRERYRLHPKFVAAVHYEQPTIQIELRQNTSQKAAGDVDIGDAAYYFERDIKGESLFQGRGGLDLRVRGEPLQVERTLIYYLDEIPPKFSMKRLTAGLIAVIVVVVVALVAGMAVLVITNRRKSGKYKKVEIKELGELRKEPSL

[2] = target: T1, human TROP-2 on the surface of human …; experiment: flow cytometry, 20 micrograms/mL antibody, C-13 ovarian cancer cells
Description: (§1) Cells were prepared for FACS by initially washing the cell monolayer with DPBS (without Ca⁺⁺ and Mg⁺⁺). Cell dissociation buffer (INVITROGEN, Burlington, ON) was then used to dislodge the cells from their cell culture plates at 37° C. After centrifugation and collection, the cells were resuspended in DPBS containing MgCl₂, CaCl₂ and 2 percent fetal bovine serum at 4° C. […] Flow cytometric acquisition of the cells was assessed by running samples on a FACSarray™ using the FACSarray™ System Software (BD Biosciences, Oakville, ON). The forward (FSC) and side scatter (SSC) of the cells were set by adjusting the voltage and amplitude gains on the FSC and SSC detectors.

[3] = target: T1, human TROP-2 on the surface of human …; experiment: flow cytometry, 20 micrograms/mL antibody, Colo-205 colon cancer cells
Description: as §1

[4] = target: T1, human TROP-2 on the surface of human …; experiment: flow cytometry, 20 micrograms/mL antibody, PL45 pancreatic cancer cells
Description: (§2) All cell lines, except for the majority of ovarian cancer cell lines, were obtained from the American Type Tissue Collection (ATCC, Manassas, Va.).
as §1

[5] = target: T1, human TROP-2 on the surface of human …; experiment: flow cytometry, 20 micrograms/mL antibody, DU-145 prostate cancer cells
Description: as §1

[6] = target: T1, human TROP-2 on the surface of human …; experiment: flow cytometry, 20 micrograms/mL antibody, FaDu head and neck cancer cells
Description: as §2, §1

[7] = target: T1, human TROP-2 on the surface of human …; experiment: flow cytometry, 20 micrograms/mL antibody, OV2008 ovarian cancer cells
Description: as §2, §1

[8] = target: T1, human TROP-2 on the surface of human …; experiment: flow cytometry, 20 micrograms/mL antibody, OCC-1 ovarian cancer cells
Description: as §2, §1

[9] = target: T1, human TROP-2 on the surface of human …; experiment: flow cytometry, 20 micrograms/mL antibody, Hey ovarian cancer cells
Description: as §1

[10] = target: T1, human TROP-2 on the surface of human …; experiment: flow cytometry, 20 micrograms/mL antibody, DLD-1 colon cancer cells
Description: as §1

[11] = target: T1, human TROP-2 on the surface of human …; experiment: flow cytometry, 20 micrograms/mL antibody, MCF-7 breast cancer cells
Description: as §2, §1

[12] = target: T1, human TROP-2 on the surface of human …; experiment: flow cytometry, 20 micrograms/mL antibody, NCI-H520 lung cancer cells (weaker binding)
Description: as §2, §1

[13] = target: T1, human TROP-2 on the surface of human …; experiment: flow cytometry, 20 micrograms/mL antibody, MDA-MB-468 breast cancer cells
Description: as §1

[14] = target: T1, human TROP-2 on the surface of human …; experiment: flow cytometry, 20 micrograms/mL antibody, T.Tn esophageal cancer cells
Description: as §1

[15] = target: T1, human TROP-2 on the surface of human …; experiment: flow cytometry, 20 micrograms/mL antibody, OVCA-429 ovarian cancer cells
Description: as §2, §1

[16] = target: T1, human TROP-2 on the surface of human …; experiment: flow cytometry, 20 micrograms/mL antibody, Hs888.Lu non-cancer lung cells (weaker binding)
Description: as §1

[17] = target: T1, human TROP-2 on the surface of human …; experiment: flow cytometry, 20 micrograms/mL antibody, PC-3 prostate cancer cells
Description: as §2, §1

[18] = target: T1, human TROP-2 on the surface of human …; experiment: flow cytometry, 20 micrograms/mL antibody, OVCAR-3 ovarian cancer cells (printed twice in the paragraph, once as OVAR-3)
Description: as §2, §1

[19] = target: T1, human TROP-2 on the surface of human …; experiment: flow cytometry, 20 micrograms/mL antibody, BxPC-3 pancreatic cancer cells
Description: as §1

[20] = target: T1, human TROP-2 on the surface of human …; experiment: flow cytometry, 20 micrograms/mL antibody, HT-29 colon cancer cells
Description: as §1

B1: AR52A301.5 monoclonal antibody (hybridoma IDAC 141205-03) (antibody, mouse IgG1, V domains shown)
VH: EVQLQQSGPELVKPGASVKISCKASGYTFTDYNMHWVKQSHGKSLEWIGYIYPYNGGTGYNQRFKNKATLTVDISSSTAYMELRSLTSEDSAVYYCAREEDYYGFDYWGQGTTLTVSS
VL: DVVMTQTPLSLPVSLGQDASISCRSSQSLVHSYGNTYLHWYLQKPGQSPKLLIYKVSNRFSGVPDRFSGSGSGTDFTLKISRVEAEDMGVYFCSQSTHVYTFGGGTKLEIK
notes: Murine IgG1, kappa from the hybridoma; also called IDAC 141205-03 antibody
For B1, the “cytotoxicity on OVCAR-3 cells relative to the positive control cycloheximide” value [1] was 53 percent, the “mean fluorescence intensity fold increase above isotype control” value [2] was 38.7 fold and the “mean fluorescence intensity fold increase above isotype control” value [3] was 38.6 fold. The “mean fluorescence intensity fold increase above isotype control” value [4] was 12.9 fold, the “mean fluorescence intensity fold increase above isotype control” value [5] was 3.9 fold and the “mean fluorescence intensity fold increase above isotype control” value [6] was 59.8 fold. The “mean fluorescence intensity fold increase above isotype control” value [7] was 32.7 fold, the “mean fluorescence intensity fold increase above isotype control” value [8] was 17.8 fold and the “mean fluorescence intensity fold increase above isotype control” value [9] was 5.9 fold. For the same binder, the “mean fluorescence intensity fold increase above isotype control” value [10] was 82.8 fold, the “mean fluorescence intensity fold increase above isotype control” value [11] was 16 fold and the “mean fluorescence intensity fold increase above isotype control” value [12] was 2.1 fold. The “mean fluorescence intensity fold increase above isotype control” value [13] was 22.7 fold, the “mean fluorescence intensity fold increase above isotype control” value [14] was 18.6 fold and the “mean fluorescence intensity fold increase above isotype control” value [15] was 3.4 fold. For the same binder, the “mean fluorescence intensity fold increase above isotype control” value [16] was 2.6 fold, the “mean fluorescence intensity fold increase above isotype control” value [17] was 5 fold and the “mean fluorescence intensity fold increase above isotype control” value [18] was 22.1 fold. For the same binder, the “mean fluorescence intensity fold increase above isotype control” value [19] was 29.4 fold and the “mean fluorescence intensity fold increase above isotype control” value [20] was 6.7 fold.
